In paper PMC10764318:

Legend:
Assay in all cases: BLI
[1] = target: WRAIR-5004 (rhesus macaque)
[2] = target: WRAIR-5011 (rhesus macaque)
[3] = target: WRAIR-5020 (rhesus macaque)
[4] = target: WRAIR-5021 (rhesus macaque)
Chain of WRAIR-5021 (rhesus macaque) (VH, as listed by the source, chain 1 of 2): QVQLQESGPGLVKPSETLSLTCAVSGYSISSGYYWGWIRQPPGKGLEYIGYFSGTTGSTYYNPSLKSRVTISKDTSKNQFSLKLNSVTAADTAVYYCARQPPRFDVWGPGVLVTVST
Chain of WRAIR-5021 (rhesus macaque) (VL, as listed by the source, chain 2 of 2): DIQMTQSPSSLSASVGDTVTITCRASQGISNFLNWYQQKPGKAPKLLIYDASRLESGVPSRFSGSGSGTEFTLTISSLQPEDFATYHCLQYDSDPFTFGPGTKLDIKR

Chain of WRAIR-5011 (rhesus macaque) (VH, as listed by the source, chain 1 of 2): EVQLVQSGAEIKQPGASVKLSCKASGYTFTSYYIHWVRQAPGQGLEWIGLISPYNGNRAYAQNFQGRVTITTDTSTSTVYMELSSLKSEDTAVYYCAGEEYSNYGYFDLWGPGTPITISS
Chain of WRAIR-5011 (rhesus macaque) (VL, as listed by the source, chain 2 of 2): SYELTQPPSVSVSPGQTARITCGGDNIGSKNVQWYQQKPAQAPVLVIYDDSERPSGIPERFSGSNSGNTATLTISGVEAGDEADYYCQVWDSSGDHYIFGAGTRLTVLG
Chain of WRAIR-5020 (rhesus macaque) (VH, as listed by the source, chain 1 of 2): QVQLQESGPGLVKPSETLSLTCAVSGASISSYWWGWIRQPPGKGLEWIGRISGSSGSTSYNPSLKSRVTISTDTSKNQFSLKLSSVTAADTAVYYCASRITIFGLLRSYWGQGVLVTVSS
Chain of WRAIR-5020 (rhesus macaque) (VL, as listed by the source, chain 2 of 2): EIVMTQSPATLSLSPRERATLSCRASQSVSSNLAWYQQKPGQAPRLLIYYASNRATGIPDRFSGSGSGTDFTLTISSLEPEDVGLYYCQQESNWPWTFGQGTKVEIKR
Chain of WRAIR-5004 (rhesus macaque) (VH, as listed by the source, chain 1 of 2): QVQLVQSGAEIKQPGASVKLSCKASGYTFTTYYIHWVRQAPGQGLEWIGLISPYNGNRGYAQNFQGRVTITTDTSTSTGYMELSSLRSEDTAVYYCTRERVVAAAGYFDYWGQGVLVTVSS
Chain of WRAIR-5004 (rhesus macaque) (VL, as listed by the source, chain 2 of 2): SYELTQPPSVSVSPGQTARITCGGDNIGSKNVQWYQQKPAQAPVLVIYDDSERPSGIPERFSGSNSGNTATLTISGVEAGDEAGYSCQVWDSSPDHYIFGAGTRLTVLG

Substance: SARS-CoV-2 Delta RBD (from UniProt P0DTC2 331-527) (domain or fragment)
- Kd [1]: 2.44 nM
- Kd [2]: 0.48 nM
- Kd [3]: 108 nM
- Kd [4]: 3.62 nM
